We go through 17 molecules from US20200223906A1 (Adimab, published 2020).

To fix the notation:
B1: ADI-18926 (antibody, V domains shown)
VH: EVQLVESGAEVKKPGASVKVSCQTSGYTFSHFGVTWIRQAPGQGLEWLGWISAYNGNTDYADKLQGRLTMTTDTSTNTAYMELRSLRSDDTAVYYCARDPPASAAAMLDYWGQGTLVTVSS
VL: DIVMTQSPLSLAVTLGQPASISCKSSQGLEYTDGNTYLSWFQQRPGQSPRRLIYKISNRDSGVPDRFSGSGSGTDFTLRISRVEAEDVGVYYCMQGTHGRGISFGPGTKVDIK
notes: full-length IgG from yeast; also called Antibody Number 280; Ab # 280
B2: ADI-18986 (antibody, V domains shown)
VH: EVQLLESGGGVVQPGKSLRLSCAASGFTFNTYAIHWVRQAPGKGLEWVAAISYDGSNEYYSNSVKGRFTISRDNSKYTLELQMNSLRPEDTAVYYCARGASYYYVSSDLGYWGQGTLVTVSS
VL: QSVVTQPPSVSGAPGQRVTISCTGSSSNIGSGYDVHWYQQLPGTAPKVVIYGNINRPSGVPERFSGSKSGTSASLAITGLQAEDEADYYCQSYDSLSASWVFGGGTKLTVL
B3: ADI-18985 (antibody, V domains shown)
VH: QVQLVQSGPEVKKPGASVKVSCEASGYTFTDFFVHWVRQAPGEGLVWLGWVNPLSGATKYAQNFQGRVTMTSDTSITTAYMALSSLRHDDTAVYYCTSQTSPYTPGAMGVWGQGTTVTVSS
VL: DIRVTQSPASLSAFVGDRVTITCRASPAISGYLSWYQQKAGKAPKILIYDASNLYSGAPSRFSGSRSGTDFTLTITSLQPEDFATYYCQQTYNGLIAFGPGTKVEIK
B4: ADI-18993 (antibody, V domains shown)
VH: EVQLVESGGGLVKPGGSLRLSCAASGFTLSSYAMNWVRQAPGKGLEWVSSISAGSSYIDYADSVKGRFTISRDNAKNSLYLQMNNLRAEDTALYYCAREVLPATAIGGAWLDPWGQGTLVTVSS
VL: QSVLTQPPSVSGAPGQTVTISCTGSSSNIGAGYDVHWYRQLPGTAPKLLIYSNNNRPSGVPDRFSGSKSDTSASLAITGLQAGDEADYYCQSYDISLSASYVFGTGTKVTVL
B5: ADI-19002 (antibody, V domains shown)
VH: EVQLVESGPGLVKPSETLSLTCTVSGGSVSGHYWSWIRQFPGKELEWIGHIYYIGTTNYNPSLKSRVIISLDTSKNQLSLKLSSVTAADTAVYYCARQFGYDKNTLSRLDFDYWGQGTLVTVSS
VL: DIQMTQSPSSLSASVRDRVTITCRASQSISSYLNWYQQRPGKAPKLLIYSAFSLHSGVPSRFSGSGSETEFTLTISSLQPDDFATYYCQQSYSIPWTFGQGTKVEIK
B6: ADI-18987 (antibody, V domains shown)
VH: QVQLVQSGAEVKKPGSSVKVSCKASGGTFSGHAINWVRQAPGQGLEWMGGIIHIFGTVNYAPKFQGRVTITADASTGTVYMELSSLISEDTAVYYCARDAYEVWTGSYLPPFDDWGQGTLVTVSS
VL: DIVMTQSPGTLSLSPGDRVTLSCRASQTVTSSYLAWYQQKPGQAPRLLIYGAFTRATGIPDRFSGSGSGTDFTLSISRLEPEDFAVYYCQQYGSSFLTFGGGTKVDIK
B7: ADI-18979 (antibody, V domains shown)
VH: EVQLLESGAEVKKPGASVKISCKASGYIFTSYGVSWVRQAPGQGLKWMGWISGYNGNTYYDQKFQGRVTMTTDTSTNTAYMELRSLTSDDTAVYYCARDSFSETGTGFPDFWGQGTLVTVSS
VL: EIVLTQSPLSLPVTLGQPASISCRSSQSLEYSDGNTYLNWFQQRPGQSPRRLIYKVSNRDSGVPDRFSGSGSGTDFTLKISRVEAEDVGVYYCMQATHRPRTFGQGTKVDIK
B8: ADI-19003 (antibody, V domains shown)
VH: QVQLQESGPGLVKPSETLSLTCSVSGGSITNVNYYWGWIRQPPGKGLEWIGSIYYNGNTYYNPSLQSRVTMSVDTSKNHFSLRLTSVTAADTAVYFCAREGPNWELLNAFDIWGQGTTVTVSS
VL: SYELTQPPSVSVAPGQTARITCGGNNIGSKNVHWYQQKPGQAPVLVVYEDTHRPSGIPERFSGSNSGNTATLTISRVEAGDEADYYCQVWDTSSDHVVFGGGTKLTVL
B9: ADI-19005 (antibody, V domains shown)
VH: QVQLVQSGAEVKKPGASVRVSCKASGYTFTDYFMNWVRQAPGGGLEWMGWINPLSGVTKYAQQFQGSVTMTTDTSITTGYMELRSLRVDDTAVYYCASQSSPYTPGAMGVWGQGTTVTVSS
VL: DIRMTQSPSSLSASVGDRVTITCRTSQSVSGYLSWYQQKPGKAPKLLIYAASNLYSGVPSRFSGSGSGTDFTLTITSLQPEDFATYFCQLNSGALFTFGPGTKVEIK
B10: ADI-18978 (antibody, V domains shown)
VH: EVQLVESGGGVVQPGRSLRLSCEASGFTFSSFSMHWVRQAPGKGLEWVAVILYDGSNQYYADSVKGRFTISRDNSKNTLYLQMNTLRAEDTAMYYCAKSSSSHVNSRQDKWGQGTLVTVSS
VL: EIVLTQSPSTLSASVGDRVTITCRASQSISRWLAWYQQKPGEAPKLLIHTASTLESGVPSRFSGSGSGTEFTLTINSLQPDDLATYYCQQYYNWWTFGQGTKVEIK
B11: ADI-18994 (antibody, V domains shown)
VH: QVQLVQSGAEVKKPGASVKVSCKASGYTFTNYGFSWVRQAPGQGLEWMGWILTHNGYTNYAQKFQDRVTMKTDTSTSTVYMELRSLRSVDTAVYYCARIGHVTAVAGAPPDYWGQGTLVTVSS
VL: QPVLTQPASVSGYQGQSITISCSGTSSDVGTYNLVSWYQQHPGKAPELMIYEGSKRPSGVSDRFSGSKSGNTASLTISGLQAEDEADYYCCSYVAGSTSVFGGGTKLTVL
B12: ADI-18991 (antibody, V domains shown)
VH: EVQLVESGPGLVKPSETLSLSCIVSGDSITSNDYYWSWIRQSPGKGLEWIGYIYHSGATFYTPSLRSRVTISTDRSKNQFSLRLSSVTAADTAVYYCASGPVGMATSNWFDPWGQGTLVTVSS
VL: QPVLTQPPSVSVAPGKTATLTCGGDIIRTNSVNWYQQKPGQAPVLIIYYDSDRPSGIPGRFSASNSGSAATLTISRVEAGDEADYYCQVWDSSTDYHVVFGGGTKLTVL
B13: ADI-19004 (antibody, V domains shown)
VH: B1 VH with E1Q, E6Q, Q23K, Y60S
VL: B1 VL with V3Q, K24R, I56V, S72A
B14: ADI-18988 (antibody, V domains shown)
VH: EVQLVESGGGLVRPGGSLRLSCAASGFSLSSYGMSWVRQAPGKGLEWVSSITAGSSYINYADSVKGRFTISRDNAKSSLFLQMTSLRVEDTAVYFCVREAYASSSALYWFDPWGQGTLVTVSS
VL: QSVLTQPPSVSGAPGQRVTISCTGSSSNLGAGYVVHWYQQLPGTSPKLLIYGNTDRPSGVPDRFSGSKSGTSASLAISGLQAEDEADYYCQSYDSSLSGWVFGGGTKLTVL
B15: ADI-18997 (antibody, V domains shown)
VH: QVQLQQWGAGLLKPSETLSLTCAVSGGYFINDNWSWIRQSPGKGLEWIGEISHSGSTNYNPSLKSRLTISVDTSRQQFSLKLSSVTAADSGVYYCARVHPSYDFGWRFFDFWGQGTLVTVSS
VL: ETTLTQSPATLSVSPGDTATLSCRASQTISSNLAWYQQKPGQPPSLLIYGASNRATGIPDRFRGSGSGTEFTLTISSLQSEDFAVYYCQQYAYWPPYTFGQGTKVEIK
B16: ADI-18983 (antibody, V domains shown)
VH: EVQLVESGGGVVQPGRSLRLSCAASGFTFSSFSMHWVRQAPGKGLEWVALISSDERNSYYADSVKGRFTISRDNSKNTLYLQISRLKVEDTAVYYCAREAYEEWELTMGNLDHWGQGTLVTVSS
VL: DIQLTQSPSSLSASVGDRVTITCRASQGIGNDLGWYQQKPGKAPKRLIYSTYSLQSGVPSRFSGSGSGTEFTLTISSLQPEDFATYYCLQHNRYPFTFGPGTKLEIK
B17: ADI-18996 (antibody, V domains shown)
VH: QVQLVQSGAEVKRPGASVKVSCKASEYAFTAHYLHWVRQAPDQGLEWMGWISPKSGGTNYAQKFHGRVSMTSDTSISTVYMELSSLTSDDTAVYYCARSSLVGASPNFDFWGQGTLVTVSS
VL: QSVVTQPPSVSAAPGQRVTISCSGSSSNIGNNYVSWYQQLPGSTPKVLIYDNNQRPSGIPDRFSGSKSGTSATLAISGLQTGDEAVYYCGTWDASLSAAMVFGGGTKLTVL

Numbering of substitutions follows the chain as printed. Bounds are passed on as bounds.

The first test addresses T1, RSV F subtype B, furin-cleaved ectodomain stabilized in the prefusion conformation (DS-Cav1) (Respiratory syncytial virus subtype B).
T1 construct: extracellular domain; Trimeric soluble antigen; also called Prefusion subtype B
Briefly: BLI, IgG on AHQ sensor, 100 nM antigen.
Usually Kd stands for the equilibrium constant for the complex coming apart. The low end stands for higher affinity, the high end for lower affinity. Molecule B1 had a dissociation constant (Kd) of 250 pM.

For another test, the target named is T2, RSV F subtype A, furin-cleaved ectodomain stabilized in the prefusion conformation (DS-Cav1) (Respiratory syncytial virus subtype A, UniProt P03420 26-524).
T2 construct: extracellular domain; Trimeric soluble antigen; also called Prefusion subtype A
The test is described as follows: BLI, IgG on AHQ sensor, 100 nM antigen.
B1: the Kd came out at 252 pM. That is a sub-nanomolar value.

The next test addresses RSV F protein of subtype A (strain A2) on recombinant mKate-RSV virus (Respiratory syncytial virus subtype A …, UniProt P03420 26-574). The test is described as follows: cell-based or functional assay.
Consider B1, for which the “Neut IC50 (µg/ml) subtype A” value is 0.023 µg/mL.

The next test concerns the target RSV F protein of subtype B (18537) on recombinant mKate-RSV virus (Respiratory syncytial virus subtype B …, UniProt P13843 26-574). Briefly: cell-based or functional assay.
Regarding B1, the “Neut IC50 (µg/ml) subtype B” value was found to be 0.092 µg/mL.

For another test, the target named is RSV F protein of subtype B (18537) on recombinant mKate-RSV (respiratory syncytial virus subtype B …, UniProt P13843 26-574). The test is described as follows: cell-based or functional assay.
On to B2, for which the “Neut IC50 subtype B” value is 0.123 µg/mL.
The same measure, in the same setting: the figure for B3 is 0.09 µg/mL.
On the same count and under the same terms, the figure for B4 is 0.128 µg/mL; for B5 it is 4.51 µg/mL.
The same measure, in the same setting: the figure for B6 is 0.027 µg/mL.
As for B7, the “Neut IC50 subtype B” value is 0.031 µg/mL.
Same read-out and setting: the figure for B8 is 0.125 µg/mL; for B9 it is 0.11 µg/mL.
Regarding B10, the “Neut IC50 subtype B” value is over 10 µg/mL.
Take B11: the “Neut IC50 subtype B” value was 0.108 µg/mL.
Still for that read-out and setting: with B12 the figure was 0.228 µg/mL; with B13, 0.128 µg/mL.
The same measure, in the same setting: with B14 the figure was 0.37 µg/mL; with B15, over 10 µg/mL.
With B16, the “Neut IC50 subtype B” value is 0.075 µg/mL.
The same measure, in the same setting: with B17 the figure was over 10 µg/mL.

In the next test the target is RSV F protein of subtype A (strain A2) on recombinant mKate-RSV (respiratory syncytial virus subtype A …, UniProt P03420 26-574). Briefly: cell-based or functional assay.
Consider B2, for which the “Neut IC50 subtype A” value amounted to 0.464 µg/mL.
Same read-out and setting: with B3 the figure was 0.034 µg/mL; with B4, 0.078 µg/mL; with B5, 2.89 µg/mL.
Still for that read-out and setting: with B6 the figure was 0.015 µg/mL.
The same measure, in the same setting: with B7 the figure was 0.012 µg/mL.
B8: the “Neut IC50 subtype A” value was determined as 0.047 µg/mL.
On to B9, for which the “Neut IC50 subtype A” value is 0.041 µg/mL.
Same read-out and setting: the figure for B10 is over 10 µg/mL; for B11 it is 0.047 µg/mL; for B12 it is 0.028 µg/mL.
Same read-out and setting: with B13 the figure was 0.02 µg/mL.
On the same count and under the same terms, the figure for B14 is 0.089 µg/mL.
On to B15, for which the “Neut IC50 subtype A” value is over 10 µg/mL.
Still for that read-out and setting: the figure for B16 is 0.028 µg/mL; for B17 it is over 10 µg/mL.
